Laboratory results as given in PMC8728441, “Biosynthesis of the redox cofactor mycofactocin is controlled by the transcriptional regulator MftR and induced by long-chain acyl-CoA species” (The Journal of Biological Chemistry, 2021).
Substitutions are numbered along the chain they refer to.

T1: MftR WT (Mycobacterium smegmatis mc2155, UniProt A0QSB5 1-200)
T1 sequence: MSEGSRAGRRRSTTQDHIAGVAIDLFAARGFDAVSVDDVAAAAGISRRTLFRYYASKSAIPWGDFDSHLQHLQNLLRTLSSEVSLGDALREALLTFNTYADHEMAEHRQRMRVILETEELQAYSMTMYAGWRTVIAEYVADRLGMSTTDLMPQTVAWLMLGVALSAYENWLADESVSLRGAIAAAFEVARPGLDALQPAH

T2: MftR D38A (Mycobacterium smegmatis mc2155, UniProt A0QSB5 1-200, D38A)
T2 sequence: T1 sequence with D38A

T3: MftR R48A (Mycobacterium smegmatis mc2155, UniProt A0QSB5 1-200, R48A)
T3 sequence: T1 sequence with R48A

T4: MftR M127A (Mycobacterium smegmatis mc2155, UniProt A0QSB5 1-200, M127A)
T4 sequence: T1 sequence with M127A

T5: MftR L120R (Mycobacterium smegmatis mc2155, UniProt A0QSB5 1-200, L120R)
T5 sequence: T1 sequence with L120R

T6: MftR R29A (Mycobacterium smegmatis mc2155, UniProt A0QSB5 1-200, R29A)
T6 sequence: T1 sequence with R29A

T7: MftR H68A (Mycobacterium smegmatis mc2155, UniProt A0QSB5 1-200, H68A)
T7 sequence: T1 sequence with H68A

T8: MftR D16R (Mycobacterium smegmatis mc2155, UniProt A0QSB5 1-200, D16R)
T8 sequence: T1 sequence with D16R

B1: FAM-Omft (dsDNA)
DNA 1: TCCATTCTGGCACTCGATGCCATATAT
DNA 2: ATATATGGCATCGAGTGCCAGAATGGA

Columns and labels:
MftR WT [1] = molecular target: T1, MftR WT; experiment: EMSA; conditions: EMSA: 50 mM Hepes, 50 mM NaCl, 0.1 mM EDTA, pH 7.5, room temperature 10 min, 5% PAGE in 1x TBE on ice; footprinting: 30 C 30 min; FP conditions not in material.
MftR D38A = molecular target: T2, MftR D38A; experiment: fluorescence polarization; EMSA: 50 mM Hepes, 50 mM NaCl, 0.1 mM EDTA, pH 7.5, room temperature 10 min, 5% PAGE in 1x TBE on ice; footprinting: 30 C 30 min; FP conditions not in material. Text fold changes for R29A/R48A and L120R/M127A are swapped relative to Table 2; table values used; conditions: protein: recombinant; tags: His-tag (pET-28a); chain copies: 2; label: 6-FAM; blunt
MftR WT [2] = molecular target: T1, MftR WT; experiment: as above; conditions: protein: recombinant; tags: His-tag (pET-28a, NdeI/XhoI); chain copies: 2; label: 6-FAM; blunt
MftR R48A = molecular target: T3, MftR R48A; experiment: as above; conditions: protein: recombinant; tags: His-tag (pET-28a); chain copies: 2; label: 6-FAM; blunt
MftR M127A = molecular target: T4, MftR M127A; experiment: as above; conditions: protein: recombinant; tags: His-tag (pET-28a); chain copies: 2; label: 6-FAM; blunt
MftR L120R = molecular target: T5, MftR L120R; experiment: as above; conditions: protein: recombinant; tags: His-tag (pET-28a); chain copies: 2; label: 6-FAM; blunt
MftR R29A = molecular target: T6, MftR R29A; experiment: as above; conditions: protein: recombinant; tags: His-tag (pET-28a); chain copies: 2; label: 6-FAM; blunt
MftR H68A = molecular target: T7, MftR H68A; experiment: EMSA; 100 uM oleoyl-CoA; EMSA: 50 mM Hepes, 50 mM NaCl, 0.1 mM EDTA, pH 7.5, room temperature 10 min, 5% PAGE in 1x TBE on ice; footprinting: 30 C 30 min; FP conditions not in material. Text fold changes for R29A/R48A and L120R/M127A are swapped relative to Table 2; table values used; conditions: protein: recombinant; tags: His-tag (pET-28a); chain copies: 2; label: 6-FAM; blunt
MftR D16R = molecular target: T8, MftR D16R; experiment: as above; conditions: protein: recombinant; tags: His-tag (pET-28a); chain copies: 2; label: 6-FAM; blunt

Molecule | Kd (MftR WT [1]) [nM] | binding result (MftR D38A) | Kd (MftR WT [2]) [nM] | Kd (MftR R48A) [µM] | Kd (MftR M127A) [µM] | Kd (MftR L120R) [µM] | Kd (MftR R29A) [µM] | binding result (MftR H68A) | binding result (MftR D16R)
Pmft | 600 | – | – | – | – | – | – | – | –
B1 | – | no binding | 1300 ± 600 | 13 ± 1.1 | 13 ± 6 | 28 ± 6 | 20.5 ± 2 | binds | binds
